Columns and labels:
[1] = target: murine monoclonal anti-HMFG antibody MC-10 (BrE-1); experiment: RIA: plate coated with 100 ng 11D10, 125I-BrE-1 bound
[2] = target: BrE-3; experiment: RIA: plate coated with 100 ng 11D10, 125I-BrE-3 bound
[3] = target: murine monoclonal anti-HMFG antibody MC-10 (BrE-1); experiment: RIA: plate coated with 300 ng 11D10, 125I-BrE-1 bound
[4] = target: BrE-3; experiment: RIA: plate coated with 300 ng 11D10, 125I-BrE-3 bound
[5] = target: murine monoclonal anti-HMFG antibody MC-10 (BrE-1); experiment: RIA: plate coated with 1000 ng 11D10, 125I-BrE-1 bound
[6] = target: BrE-3; experiment: RIA: plate coated with 1000 ng 11D10, 125I-BrE-3 bound
[7] = target: murine monoclonal anti-HMFG antibody MC-10 (BrE-1); experiment: RIA: 125I-11D10 bound to BrE-1 coated plate, no inhibitor
[8] = target: murine monoclonal anti-HMFG antibody MC-10 (BrE-1); experiment: competition RIA: 125I-11D10 on BrE-1 coated plate, 0.250 µg unlabeled 11D10
[9] = target: murine monoclonal anti-HMFG antibody MC-10 (BrE-1); experiment: competition RIA: 250 ng 11D10 mixed with labeled BrE-1, binding to MCF-7 / SKBR3 cell monolayers

- cpm [1]: 6150 cpm
- cpm [2]: 263 cpm
- cpm [3]: 16700 cpm
- cpm [4]: 260 cpm
- cpm [5]: 44200 cpm
- cpm [6]: 374 cpm
- cpm Bound [7]: 37100 cpm
- % inhibition [8]: 95%
- cpm Bound [8]: 1850 cpm
- % inhibition [9]: > 90%
Substance: monoclonal anti-idiotype antibody 11D10

From patent publication US6949244
